Measured values from patent US20210002363A1 (PHANES THERAPEUTICS, published 2021).
Substitutions are numbered along the chain they refer to. Blank lines part the entries; values can stand above or below the binder they belong to.

How the values were obtained:
[1] = target: T1, Recombinant extracellular domain of human FOLR1 (Novoprotein, Cat#: C784) (human, UniProt P15328 25-233, limits assumed); experiment: ELISA on immobilized FOLR1 extracellular domain; O.D. 450 nm
T1 construct: Bought reagent; also called recombinant FOLR1; immobilized FOLR1 extracellular domain

[2] = target: T1, Recombinant extracellular domain of …; experiment: ELISA on plate-coated recombinant human FOLR1 extracellular domain; anti-human IgG-HRP; O.D. 450 nm
Procedure: The Purified chimeric mAbs were tested in an ELISA assay for their ability to bind to immobilized human FOLR1. Recombinant extracellular domain of human FOLR1 (Novoprotein, Cat#: C784) in carbonate coating buffer was coated on a 96-well plate at room temperature for 1 hour. The plate is blocked by 5% BSA in TBST for 1 hour at room temperature. In each well of an individual plate, mAbs at various concentrations were incubated for 1 hour at room temperature. The plate was washed and the binding to FOLR1 was detected by anti-human IgG conjugated to horseradish peroxidase (hIgG-HRP) (ThermoFisher Scientific, Cat#: H10007) with incubation for 1 hour at room temperature. Then after washing, the ELISA was developed using One-step Detection Solution (ThermoFisher Scientific, Cat#: 34028) and measured as the absorbance at 450 nm.

[3] = target: T2, FOLR1 on SK-OV-3 cells (ATCC HTB-77) (Homo sapiens (Human), UniProt P15328 25-234); experiment: FACS on SK-OV-3 cells; Alexa Fluor 488 F(ab')2 goat anti-human IgG Fc; MFI
T2 construct: Endogenous FOLR1 of the cell line; also called cells that are known to express FOLR1
Procedure: To assess the binding of the chimeric anti-FOLR1 mAbs to cells that are known to express FOLR1, SK-OV-3 (ATCC® HTB-77™) cells were plated at 80,000 cells per well on a 96-well non-binding U-bottom plate (Greiner Bio-One, Cat#: 650901). In some experiments, 90,000 cells per well were used. The cells were incubated in 50 μL FACS buffer (HBSS with 0.1% BSA and 0.05% sodium azide) containing mAbs at different concentrations on ice for 15 minutes. After wash, cells were incubated in 50 μL FACS buffer containing 3.5 μg/mL F(ab′)2-Goat anti-Human IgG Fc conjugated to Alexa Fluor® 488 (Invitrogen, Cat#: H10120) on ice for 15 minutes in dark and washed again. Cells were analyzed using an Attune NxT flow cytometer. MFI, mean fluorescence intensity.

[4] = target: T1, Recombinant extracellular domain of …; experiment: ELISA on immobilized FOLR1 extracellular domain; O.D. 450 nm; remark: listed apart in the source
[5] = target: T1, Recombinant extracellular domain of …; experiment: SPR (Biacore 8k), mAb captured on protein A chip, recombinant FOLR1 as analyte, 1:1 model
Procedure: The interaction of the chimeric anti-FOLR1 mAbs and FOLR1 was measured by Surface Plasmon Resonance (SPR) (Biacore 8k, GE Healthcare). Briefly, an anti-FOLR1 mAb was immobilized to a protein A sensor chip (GE Healthcare, Cat#: 29-1275-56) in HBS-P buffer (0.01 M HEPES pH 7.4, 0.15 M NaCl, 0.05% v/v Surfactant P20) with an injection flow rate at […]. The recombinant FOLR1 (Novoprotein, Cat#: C784) at variant concentrations was loaded with the flow rate of 30 μL/min in HBS-P buffer. Following antigen loading, the surface was regenerated with 10 mM glycine-HCl (pH 1.5). Sensor grams were fit with a 1:1 binding model using Biacore 8k evaluation software (GE Healthcare).

[6] = target: T2, FOLR1 on SK-OV-3 cells (ATCC HTB-77); experiment: FACS on SK-OV-3 cells; MFI
[7] = target: T1, Recombinant extracellular domain of …; experiment: ELISA on immobilized FOLR1 extracellular domain; O.D. 450 nm; remark: listed apart in the source
[8] = target: T1, Recombinant extracellular domain of …; experiment: as above; remark: listed apart in the source
[9] = target: T1, Recombinant extracellular domain of …; experiment: as above; remark: listed apart in the source
[10] = target: T2, FOLR1 on SK-OV-3 cells (ATCC HTB-77); experiment: FACS on SK-OV-3 cells; MFI; remark: listed apart in the source
[11] = target: T1, Recombinant extracellular domain of …; experiment: ELISA on immobilized FOLR1 extracellular domain; O.D. 450 nm; remark: listed apart in the source
[12] = target: T2, FOLR1 on SK-OV-3 cells (ATCC HTB-77); experiment: FACS on SK-OV-3 cells; MFI; remark: listed apart in the source
[13] = target: T1, Recombinant extracellular domain of …; experiment: ELISA on immobilized FOLR1 extracellular domain; O.D. 450 nm; remark: listed apart in the source
[14] = target: T1, Recombinant extracellular domain of …; experiment: as above; remark: listed apart in the source

T2 sequence (P15328 25-234 limits assumed): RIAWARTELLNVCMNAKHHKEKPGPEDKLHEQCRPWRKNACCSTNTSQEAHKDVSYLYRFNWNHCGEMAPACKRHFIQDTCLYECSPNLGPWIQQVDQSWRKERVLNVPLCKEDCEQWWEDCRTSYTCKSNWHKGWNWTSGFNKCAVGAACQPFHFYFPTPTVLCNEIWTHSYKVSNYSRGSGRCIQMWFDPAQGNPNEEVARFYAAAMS
T1 sequence (P15328 25-233 limits assumed): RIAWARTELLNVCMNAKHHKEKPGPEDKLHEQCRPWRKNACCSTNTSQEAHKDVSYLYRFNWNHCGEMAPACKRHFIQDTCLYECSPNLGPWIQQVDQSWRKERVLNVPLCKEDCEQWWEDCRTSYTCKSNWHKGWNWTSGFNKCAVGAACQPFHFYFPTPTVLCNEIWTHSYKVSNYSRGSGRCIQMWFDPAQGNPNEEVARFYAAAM

B2: F10-H1L3 (antibody, V domains shown)
VH: EVQLVQSGAEVKKPGSSVKVSCKASGYAFSSSWMNWVRQAPGQGLEWIGRIYPGDGYTHYNGMFKGRASLTADKSTSTGYMELSSLRSEDTAVFFCTRHGDFPYWYFDVWGRGTLVTVSP
VL: DIQMTQSPSTLSASVGDRVTITCRASENIDSYLAWYQQKPGRAPKLLVYAATNLAVGVPSRFSGSGSGTEYTLTISSLQSEDFATYYCQHHYSTPPTFGQGTKLEIK
notes: also called humanized F10 mAb H1L3
EC50 (read off the curve) [6]: ~3000 pM

B6: F20-H2L2 (antibody, V domains shown)
VH: QVQLVQSGAEVKKPGSSVKVSCKASGYTFASYYLYWVRQAPGQGLEWIGEINPRSGGTNFNEKFKSRATVTVDASTSTAYMELSSLRSEDTAVYYCSRSGRLRGFYTMDYWGQGTLVTVSS
VL: DIVMTQSPDSLAVSLGERATINCKAGENVGSYVSWYQQKPGQSPKLLIYGASNRYTGVPDRFSGSGSATDFTLTISSLQAEDVAVYYCGQTYRFLTFGQGTKVEIK
notes: also called humanized F20 mAb H2L2
binding result [10]: binds
binding result [11]: binds

B9: F20-H2L1 (antibody, V domains shown)
VH: B6 VH
VL: B6 VL with S43P
notes: also called humanized F20 mAb H2L1
binding result [10]: binds
binding result [11]: binds

B11: F5-H2L1 (antibody, V domains shown)
VH: EVQLVESGGGLVQPGGSLRLSCAVSGFTFSNYGMSWVRQAPGKGLEWVATISSGGSYTYYPDSVKGRFTISRDNSKNTLYLQMNSLRAEDTAVYYCSTQGSSGYVGYWGQGTLVTVSS
VL: DIQMTQSPSSVSASVGDRVTITCKASQDITNFIGWYQHKPGKAPKLLISYTSILESGVPSRFSGSGSGRDYTLTISSLQPEDFATYYCLQYYNLWTFGGGTKVEIK
notes: also called humanized F5 mAb H2L1
EC50 (read off the curve) [1]: ~300 pM

B12: F5-H1L1 (antibody, V domains shown)
VH: B11 VH with V5L
VL: B11 VL
notes: also called humanized F5 mAb H1L1
EC50 (read off the curve) [1]: ~400 pM

B14: F5-H4L1 (antibody, V domains shown)
VH: B11 VH with S75D, N84S
VL: B11 VL
notes: also called humanized F5 mAb H4L1
EC50 (read off the curve) [14]: ~400 pM

Next, values leading:

EC50 (read off the curve) [1]: 100 to 200 pM
EC50 (read off the curve) [2]: ~100 pM
EC50 (read off the curve) [3]: ~400 pM
EC50 (read off the curve) [4]: 200 to 300 pM
Kd [5]: 352 pM
B1: chimeric anti-FOLR1 mAb F5 (antibody, V domains shown)
VH: EVQLVESGGELVKPGGSLKLSCAVSGFTFSNYGMSWVRQTPDKRLEWVATISSGGSYTYYPDSVKGRFTISRDNDKNTLYLQMSSLKSEDTAMYYCSTQGSSGYVGYWGQGTTLTVSS
VL: DIQMTQSPSSLSAFLGGKVTITCKASQDITNFIGWYQHKPGKGPRLLISYTSILESGIPSRFSGSGSGRDYSFSISNLEPEDIATYYCLQYYNLWTFGGGTKLEIK
notes: also called Chimeric mAb F5

EC50 (read off the curve) [7]: 100 to 200 pM
B3: F17-H1L1 (antibody, V domains shown)
VH: EVQLVETGGGLIQPGGSLRLSCAASGFTFSDFGMHWIRQAPGKGLEWVAYMSYTPGTFHYADTVKDRFTISRDNSKNTLYLQMNSLRAEDTAVYYCARVHVGTVDYWGQGTLVTVSS
VL: EVVLTQSPATLSLSPGERATLSCRASQNINNNLHWFQQKPGQAPRLLIKYASQSISGIPARFSGSGSGTDFTLTISSLEPEDFAVYFCQQSNSWPALTFGQGTKVEIK
notes: also called humanized F17 mAb H1L1

EC50 (read off the curve) [2]: ~200 pM
EC50 (read off the curve) [3]: ~900 pM
EC50 (read off the curve) [8]: ~200 pM
Kd [5]: 704 pM
B4: chimeric anti-FOLR1 mAb F10 (antibody, V domains shown)
VH: QVQLQQSGPELVKPGASVKISCKASGYAFSSSWMNWVRQRPGKGLEWIGRIYPGDGYTHYNGMFKGKATLTADKSSSTGYMQLSSLTSEDSAVYFCTRHGDFPYWYFDVWGTGTTVTVSS
VL: DIQMTQSPASLSASVGESVTITCRASENIDSYLAWYQQKQGKSPQLLVYAATNLAVGVPSRFSGSGSGTQYTLKINSLQSEDVARYYCQHHYSTPPTFGGGTKLEIK
notes: also called Chimeric mAb F10

EC50 (read off the curve) [2]: 100 to 200 pM
EC50 (read off the curve) [9]: 200 to 300 pM
EC50 (read off the curve) [3]: ~800 pM
EC50 (read off the curve) [7]: 200 to 300 pM
Kd [5]: 265 pM
B5: chimeric anti-FOLR1 mAb F17 (antibody, V domains shown)
VH: DVQLVESGGGLVQPGGSRKLSCAASGFTFSDFGMHWIRQAPERGLEWVAYMSYTPGTFHYADTVKDRFFISRDNAKNTLFLQMTSLRSDDTAMYYCARVHVGTVDYWGQGTSVTVSS
VL: DVVLTQSPATLSVTPGDSVSLSCRASQNINNNLHWFQQKSHESPRLLIKYASQSISGIPSRFSGSGSGTDFTLSINNVETEDFGIYFCQQSNSWPALTFGTGTKVELK
notes: also called Chimeric mAb F17

EC50 (read off the curve) [11]: ~300 pM
B7: F20-H2L3 (antibody, V domains shown)
VH: B6 VH
VL: DIQMTQSPSTLSASVGDRVTITCKAGENVGSYVSWYQQKPGKAPKLLIYGASNRYTGVPARFSGSGSATEFTLTISSLQPDDFATYYCGQTYRFLTFGQGTKVEVK
notes: also called humanized F20 mAb H2L3

EC50 (read off the curve) [12]: ~1000 pM
EC50 (read off the curve) [13]: ~300 pM
B8: F20-H3L4 (antibody, V domains shown)
VH: B6 VH with R67K, A74K, S77N
VL: B7 VL with D81E
notes: also called humanized F20 mAb H3L4

EC50 (read off the curve) [13]: ~300 pM
B10: F20-H1L4 (antibody, V domains shown)
VH: B6 VH with A74K
VL: B7 VL with D81E
notes: also called humanized F20 mAb H1L4

EC50 (read off the curve) [14]: ~400 pM
B13: F5-H4L2 (antibody, V domains shown)
VH: B11 VH with S75D, N84S
VL: B11 VL with R69T
notes: also called humanized F5 mAb H4L2
